Results taken from publication PMC12922802 (Cell, 2025).

B1: SRSF3 (natural protein, human, UniProt P84103 1-164, looked up)
chain: MHRDSCPLDCKVYVGNLGNNGNKTELERAFGYYGPLRSVWVARNPPGFAFVEFEDPRDAADAVRELDGRTLCGCRVRVELSNGEKRSRNRGPPPSWGRRPRDDYRRRSPPPRRRSPRRRSFSRSRSRSLSRDRRRERSLSRERNHKPSRSFSRSRSRSRSNERK
B2: SRSF5 (natural protein, human, UniProt Q13243 1-272, looked up)
chain: MSGCRVFIGRLNPAAREKDVERFFKGYGRIRDIDLKRGFGFVEFEDPRDADDAVYELDGKELCSERVTIEHARARSRGGRGRGRYSDRFSSRRPRNDRRNAPPVRTENRLIVENLSSRVSWQDLKDFMRQAGEVTFADAHRPKLNEGVVEFASYGDLKNAIEKLSGKEINGRKIKLIEGSKRHSRSRSRSRSRTRSSSRSRSRSRSRSRKSYSRSRSRSRSRSRSKSRSVSRSPVPEKSQKRGSSSRSKSPASVDRQRSRSRSRSRSVDSGN
B3: SRSF7 (natural protein, human, UniProt Q16629 1-238, looked up)
chain: MSRYGRYGGETKVYVGNLGTGAGKGELERAFSYYGPLRTVWIARNPPGFAFVEFEDPRDAEDAVRGLDGKVICGSRVRVELSTGMPRRSRFDRPPARRPFDPNDRCYECGEKGHYAYDCHRYSRRRRSRSRSRSHSRSRGRRYSRSRSRSRGRRSRSASPRRSRSISLRRSRSASLRRSRSGSIKGSRYFQSPSRSRSRSRSISRPRSSRSKSRSPSPKRSRSPSGSPRRSASPERMD

What was measured:
SRSF1ΔIDR2 = assay: right-angle light scattering
[1] = biological target: the molecule itself
[2] = biological target: the molecule itself; assay: right-angle light scattering

Molecule	threshold concentration for microphase separation (cμ) (SRSF1ΔIDR2)	stoichiometry N [1]	threshold concentration for microphase separation (cμ) [2]
SRSF1ΔIDR2 (domain or fragment)	0.44 µM		
B1		~93 molecules per microphase	2 ± 0.14 µM
B2		~14 molecules per microphase	9.5 ± 0.71 µM
B3		~8 molecules per microphase	1 ± 0.14 µM
